Data reported in paper PMC3034353.

Assays:
[1] = target: Bacillus subtilis τ protein L381A mutant (B. subtilis) (UniProt P09122); test: SEC
[2] = target: Bacillus subtilis τ protein L381A mutant (B. subtilis) (UniProt P09122); test: AUC
[3] = target: Bacillus subtilis τ protein (wild type) (B. subtilis) (UniProt P09122); test: SEC
[4] = target: Bacillus stearothermophilus DnaB helicase (B. stearothermophilus) (UniProt Q9X4C9); test: AUC
[5] = target: Bacillus subtilis τ protein L381P mutant (B. subtilis) (UniProt P09122); test: SEC

## Bacillus subtilis τ protein L381A mutant (from UniProt P09122 1-563) (natural protein)
[1]
  stoichiometry N: 3
[2]
  stoichiometry N: 4

## Bacillus subtilis τ protein (wild type) (from UniProt P09122 1-563) (natural protein)
[3]
  stoichiometry N: 4
[4]
  stoichiometry N (τ pentamer per DnaB hexamer): 1

## Bacillus subtilis τ protein L381P mutant (from UniProt P09122 1-563) (natural protein)
[5]
  stoichiometry N: 3
